One block for each binder: values may come before it. Where no end group is shown, it is not given here.
Tests used:
[1] = target: NRP1-b1b2 (273-586) protein (UniProt O14786); assay: ELISA on immobilised NRP1-b1b2, reference Fc-TPP11
[2] = target: NRP2-b1b2 (275-595) protein (UniProt O60462); assay: SPR; KD on NRP2-b1b2 divided by KD on NRP1-b1b2
[3] = target: NRP2-b1b2 (275-595) protein (UniProt O60462); assay: SPR (Biacore 2000), NRP2-b1b2 immobilised on CM5
[4] = target: T1, NRP1 displayed on the human umbilical vein endothelial cell (HUVEC) surface (human, UniProt O14786 22-923); assay: confocal microscopy on HUVEC
T1 construct: whole, on cells; Endogenous NRP1 of human cells; also called NRP1 on the HUVEC cell surface
Method: Specifically, 5×10⁴ HUVEC cells were added to each well of a 24-well plate and incubated in 0.5 ml of EGM2 (Endothelial growth medium, Promocell) medium for 24 hours under the conditions of 5% CO₂ and 37° C. […] Next, the medium was removed, and each well was washed with cold PBS. […] The nucleus was stained (blue fluorescence) with DAPI and analyzed by confocal microscopy.

[5] = target: NRP1-b1b2 (273-586) protein (UniProt O14786); assay: SPR (Biacore 2000), NRP1-b1b2 immobilised on CM5

Sequence of NRP2-b1b2 (275-595) protein (O60462 275-595 limits assumed, form in doubt): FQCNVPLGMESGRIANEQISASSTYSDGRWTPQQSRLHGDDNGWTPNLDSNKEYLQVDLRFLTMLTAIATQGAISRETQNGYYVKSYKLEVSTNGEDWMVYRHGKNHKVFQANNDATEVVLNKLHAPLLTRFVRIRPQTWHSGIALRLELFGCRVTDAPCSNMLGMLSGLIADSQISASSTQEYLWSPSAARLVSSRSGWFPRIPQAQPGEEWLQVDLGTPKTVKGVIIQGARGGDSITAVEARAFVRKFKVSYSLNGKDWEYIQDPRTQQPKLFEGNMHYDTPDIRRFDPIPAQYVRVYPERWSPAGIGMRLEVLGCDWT

- fold lower affinity than Fc-TPP11 [1]: 100 fold
B1: synthetic peptide TPP11 not fused to Fc (peptide)
peptide: HTPGNSKPTRTPRR
modifications: also: biotinylated for ELISA, position not given here

- Binding Affinity Ratio [(KD for NRP2)/KD for NRP1)] [2]: 625
- Kd [3]: 1130 nM
- binding result [4]: binds
- Kd [5]: 1.81 nM
B2: Fc-TPP1 (Fc fusion)
chain: GGGGSGGGGSGGGGSHTPGNSNQFVLTSTRPPR
modifications: not fully specified (N-terminus); also: Fc fusion, peptide at end of CH3, Fc not in chain, disulfide-linked Fc dimer
notes: Disulfide-linked dimer, peptide fused to the end of CH3 by a (G4S)3 linker; expressed in HEK293-F; also called Fc-TPP1 fusion protein; Fc-TPP1 protein; not shown: Antibody heavy-chain constant region Fc (hinge-CH2-CH3)

- Binding Affinity Ratio [(KD for NRP2)/KD for NRP1)] [2]: 65.8
- Kd [3]: 254 nM
- Kd [5]: 3.85 nM
B3: Fc-TPP8 (Fc fusion, not shown: a dimerising Fc or GST; small tags and cut ends)
chain: GGGGSGGGGSGGGGSHTPGIATRTPR
modifications: not fully specified (N-terminus); also: Fc fusion, Fc not in chain, disulfide-linked Fc dimer

- Binding Affinity Ratio [(KD for NRP2)/KD for NRP1)] [2]: 0.98
- Kd [3]: 62 nM
B4: Fc-A22p (Fc fusion, not shown: a dimerising Fc or GST; small tags and cut ends)
chain: HTPGNSNKWKHLQENKKGRPRR
modifications: not fully specified (N-terminus); also: fused C-terminal to Fc (hinge-CH2-CH3), isotype and sequence not given here, linker not given here

— US20220041683A1 (published 2022)
